Experimental data published in article PMC4653635, “Folding of newly translated membrane protein CCR5 is assisted by the chaperonin GroEL-GroES” (Scientific Reports, 2015).

What was measured:
Conditions in all cases: one partner purified
[1] = molecular target: T1, Human CC chemokine receptor type 5 (CCR5), C-terminally 6 × His-tagged (human, UniProt P51681 1-352); assay: quartz crystal microbalance (QCM); CCR5 made without added chaperonin; supernatant diluted 20 times and immobilised on a Q-Sense His-tag Capturing Sensor; CCL11 flowed over; 25 °C; 25 mM HEPES, 0.12 M NaCl, 0.2% Brij35, pH 7.6; 1:1 binding model
T1 construct: CC chemokine receptor type 5 (CCR5), human; 352 amino acids, 40.5 kDa as printed; cloned in pIVEX2.3d; The same construct was made with no chaperonin, with GroEL-GroES (0.04:0.08 uM) or with GroEL alone (0.04 uM) added to the cell-free reaction; these three samples are kept apart as assays; For one gel, BODIPY-labelled lysines were incorporated during translation; also called CCR5 receptor; …

[2] = molecular target: T1, Human CC chemokine receptor type 5 …; assay: quartz crystal microbalance (QCM); CCR5 made with GroEL-GroES added to the cell-free reaction; supernatant diluted 20 times and immobilised on a Q-Sense His-tag Capturing Sensor; CCL11 flowed over; 25 °C; 25 mM HEPES, 0.12 M NaCl, 0.2% Brij35, pH 7.6; 1:1 binding model
[3] = molecular target: T1, Human CC chemokine receptor type 5 …; assay: quartz crystal microbalance (QCM); CCR5 made with GroEL alone added to the cell-free reaction; supernatant diluted 20 times and immobilised on a Q-Sense His-tag Capturing Sensor; CCL11 flowed over; 25 °C; 25 mM HEPES, 0.12 M NaCl, 0.2% Brij35, pH 7.6; 1:1 binding model

T1 sequence (P51681 whole entry): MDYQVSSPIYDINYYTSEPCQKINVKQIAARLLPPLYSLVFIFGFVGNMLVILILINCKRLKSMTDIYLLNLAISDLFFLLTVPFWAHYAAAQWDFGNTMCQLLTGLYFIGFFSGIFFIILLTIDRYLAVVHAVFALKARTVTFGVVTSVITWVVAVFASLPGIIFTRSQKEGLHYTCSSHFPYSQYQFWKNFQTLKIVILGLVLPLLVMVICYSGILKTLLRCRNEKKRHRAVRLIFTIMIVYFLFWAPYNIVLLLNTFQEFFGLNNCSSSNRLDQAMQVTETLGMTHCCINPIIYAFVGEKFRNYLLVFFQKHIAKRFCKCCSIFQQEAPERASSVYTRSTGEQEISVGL

Kd [1]: 97 nM
koff [1]: 0.00046 s⁻¹
kon [1]: 4700 M⁻¹ s⁻¹
Kd [2]: 44 nM
koff [2]: 0.0002 s⁻¹
kon [2]: 4500 M⁻¹ s⁻¹
Kd [3]: 55 nM
koff [3]: 0.00025 s⁻¹
kon [3]: 4600 M⁻¹ s⁻¹
B1: eotaxin (CCL11) (ligand)
chain: not shown
notes: eotaxin (CCL11)
